Test [1] addresses β2-adrenergic receptor C terminally fused with RlucII (β2AR-RlucII) (UniProt P07550). Briefly: FRET or BRET; live HEK293 cells co-transfected with donor β2AR-RlucII and acceptor NES-Venus-mGs, -mGsi or -mGsq; 48 h after transfection stimulated 20 min with increasing concentrations of ISO; 5 μM coelenterazine H in PBS; data as % of maximal ISO-induced mGs recruitment.
Test [2] shares this target. Put plainly: FRET or BRET; live HEK293 cells co-transfected with donor β2AR-RlucII and acceptor NES-Venus-mGsq; stimulated 20 min with increasing concentrations of ISO, epinephrine, norepinephrine or formoterol; data as % of maximal ISO-induced mGsq recruitment. For orientation: BRET reads energy transfer from a luciferase to a nearby fluorophore.

In test [1], NES-Venus-mGsi (mini G protein mGsi) yielded an efficacy of ISO-induced recruitment, % of mGs of 60%.
Substance NES-Venus-mGsq (mini G protein mGsq) gave an efficacy of ISO-induced recruitment, % of mGs in test [1] of 20%. Further, in test [2], the efficacy of recruitment with epinephrine, % of ISO is 60%; the efficacy of recruitment with formoterol, % of ISO came out at 80%; the efficacy of recruitment with norepinephrine, % of ISO turned out to be 40%.

(Values after paper PMC11570840.)
